{"source": "patent US20140357549A1", "about": "(UNIVERSITY OF PITTSBURGH OF THE COMMONWEALTH SYSTEM OF …, published 2014)", "biological_target": "T1, Nox1 (UniProt Q9Y5S8 1-564, limits assumed)", "T1 sequence (looked up)": "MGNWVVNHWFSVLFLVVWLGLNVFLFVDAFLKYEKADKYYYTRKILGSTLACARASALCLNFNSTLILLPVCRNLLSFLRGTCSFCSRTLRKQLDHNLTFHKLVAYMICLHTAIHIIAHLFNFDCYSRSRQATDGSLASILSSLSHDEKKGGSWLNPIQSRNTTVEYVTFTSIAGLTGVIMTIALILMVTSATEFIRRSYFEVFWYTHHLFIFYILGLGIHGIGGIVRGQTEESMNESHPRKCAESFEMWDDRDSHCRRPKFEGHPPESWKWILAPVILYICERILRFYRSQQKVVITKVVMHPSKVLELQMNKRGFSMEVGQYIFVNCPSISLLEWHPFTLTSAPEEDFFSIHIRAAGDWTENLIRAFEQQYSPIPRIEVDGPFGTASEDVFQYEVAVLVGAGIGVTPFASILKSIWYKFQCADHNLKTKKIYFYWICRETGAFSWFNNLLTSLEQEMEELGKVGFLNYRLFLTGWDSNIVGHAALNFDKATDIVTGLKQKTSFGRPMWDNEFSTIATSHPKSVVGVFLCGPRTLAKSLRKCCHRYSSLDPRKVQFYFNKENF", "experiment": "cell-based or functional assay", "data": [{"binder": "H-EPVDALGKAKV-NH2", "note": "[NoxA1ds]", "values": [{"measurement": "inhibition of O2^- production by Nox1-transfected COS22 cells (SOD-inhibitable cytochrome c reduction), IC50", "result": 19, "unit": "nM"}]}]}
